In publication PMC8217500:

How the values were obtained:
[1] = biological target: Fc-tagged SARS-CoV-2 spike receptor-binding domain (RBD) (SARS-CoV-2) (UniProt P0DTC2); assay: BLI; Fc-tagged RBD (20 ug/ml) loaded on anti-hIgG Fc Capture (AHC) biosensors, Fab in solution; room temperature; 1x PBS pH 7.4, 0.01% BSA, 0.002% Tween 20; 1:1 binding model
[2] = biological target: Fc-tagged SARS-CoV-2 receptor-binding domain (RBD), wild type (SARS-CoV-2) (UniProt P0DTC2); assay: BLI; Fc-tagged RBD (20 ug/ml) loaded on anti-hIgG Fc Capture (AHC) biosensors, Fab in solution at four to five concentrations; Octet Red96e, room temperature, 1x kinetics buffer (1x PBS pH 7.4, 0.01% w/v BSA, 0.002% v/v Tween 20); 1:1 binding model
[3] = biological target: Fc-tagged SARS-CoV-2 RBD (SARS-CoV-2) (UniProt P0DTC2); assay: BLI; Octet Red96e, room temperature; Fc-tagged RBD (20 μg/ml) loaded on anti-hIgG Fc Capture (AHC) biosensors, Fab in solution; 1× kinetics buffer (1× PBS pH 7.4, 0.01% BSA, 0.002% Tween 20); 60 s association, 60 s dissociation; 1:1 binding model

Row | Substance | Kd [1] [nM] | Kd [3] [nM] | also measured
1 | CC12.3 Fab, F58 (wild type) | 14 |  | 
2 | CC12.3 Fab, wild type |  |  | Kd [2]: 14 nM
3 | COV107-23 Fab, Y58 variant (heavy chain F58Y) | 362 |  | 
4 | COV107-23 paired with the light chain of COVD21-C8 (Fab) |  | > 1000 | 
5 | COVD21-C8 heavy chain paired with the light chain of COV107-23 (Fab) |  | > 1000 | 
